Measurements reported in US9725518B2, “Antibodies that bind to Jagged 1” (Cancer Research Technology Limited, priority 2013, dated 2017).

Columns and labels:
[1] = Soluble aggregates of transiently expressed antibodies; assay type: physicochemical; settings: Protein A purified antibody
From the text: The protein yield of these antibodies, their levels of soluble aggregates and their binding affinity to the immunogen (J1-DE3) are illustrated in (Table 6).

[2] = target: T1, N1 binding to cell surface expressed hJ1 (Homo sapiens, UniProt P78504); assay: Notch binding blocking assay (FACS): N1 EGF11-13 beads staining human J1-expressing cells; parameters: key: +: Complete blocking; X: No blocking
T1 construct: cell expressed full length human J1 (hJ1; HEK293 transfectants); expressed in transfected cells; host or cells: HEK293
Procedure: To functionally identify mAbs with the capacity to disrupt the J1-N1 protein:protein interaction, hybridoma culture supernatants were tested in a FACS-based binding assay. Biotinylated soluble human N1 EGF11-13 recombinant protein was bound to avidin-coated beads and used to stain J1-expressing cells in the presence or absence of each mAb that recognised cell surface hJ1 by FACS. […] The four blocking antibodies of the invention were also able to block the binding of recombinant […] to a biotin-tagged J1 DSL-EGF3 recombinant protein in an ELISA assay (FIG. 1B). […] The four blocking mAbs of the invention were purified from serum-free culture supernatants and equal concentrations of purified antibodies were used to compare their activity in subsequent assays (unless hybridoma supernatant was specified). Sequence conservation across the DSL domain raised the possibility that the J1 mAbs may also be able to bind the Jagged 2 (J2) protein. Antibody binding specificity was initially tested by immunocytochemical labelling of cytospin samples of hJ1 and hJ2 transfectants (FIG. 2). All antibodies stained J1 transfectants but none stained the J2 transfected cells, and J2 expression in the same experiment was confirmed using a commercial anti-J2 antibody. The specificity of the purified mAbs was further investigated in mammalian cells transfected with hJ2, human Delta-like ligand 4 (hDLL4), or mJ1 (FIG. 3). Transfectants were FACS stained with 10 μg/ml of each of the four blocking mAbs.
To test the blocking efficiencies of the J1 mAbs, purified mAbs were titrated to determine the concentration required to block recombinant N1 binding to cell surface expressed hJ1. Beads coated with a bacterially-expressed N1 EGF11-13 protein were used to stain the hJ1-expressing cells in the presence of various concentrations of mAbs.
The FACS-based binding assay using biotinylated soluble human N1 EGF11-13 recombinant protein bound to avidin-coated fluorescent beads to stain J1-expressing cells was performed using a dilution series of each variant mAb to test their ability to block J1 binding to N1 by FACS (Table 7). […] Thus 12/16 J1-65D1 variants V1-12 and all J1-183D variants have the desired binding and blocking activity.
Human N1 EGF11-13 (411-526) was expressed in E. coli, refolded in vitro and labelled with purple fluorescent avidin-coated beads (Spherotech) as previously described. HEK293 cells transfected with human J1 or B16F10 cells transfected with mouse J1 were stained with N1 fluorescent beads in the presence of J1 antibody supernatants or purified antibody (murine, chimeric or humanised) diluted in HBBS/10% FCS. Cells were washed and re-suspended in staining buffer before being analysed with a FACSCalibur and data analysis with CellQuest. HEK293 cells transfected with human Jagged 2 and B16F10 cells transfected with human and mouse DLL4 were stained similarly to test blocking specificity.

[3] = final antibody concentration 0.2 μg/ml
[4] = final antibody concentration 0.4 μg/ml
[5] = final antibody concentration 0.6 μg/ml
[6] = final antibody concentration 1.0 μg/ml

T1 sequence (P78504 34-1218): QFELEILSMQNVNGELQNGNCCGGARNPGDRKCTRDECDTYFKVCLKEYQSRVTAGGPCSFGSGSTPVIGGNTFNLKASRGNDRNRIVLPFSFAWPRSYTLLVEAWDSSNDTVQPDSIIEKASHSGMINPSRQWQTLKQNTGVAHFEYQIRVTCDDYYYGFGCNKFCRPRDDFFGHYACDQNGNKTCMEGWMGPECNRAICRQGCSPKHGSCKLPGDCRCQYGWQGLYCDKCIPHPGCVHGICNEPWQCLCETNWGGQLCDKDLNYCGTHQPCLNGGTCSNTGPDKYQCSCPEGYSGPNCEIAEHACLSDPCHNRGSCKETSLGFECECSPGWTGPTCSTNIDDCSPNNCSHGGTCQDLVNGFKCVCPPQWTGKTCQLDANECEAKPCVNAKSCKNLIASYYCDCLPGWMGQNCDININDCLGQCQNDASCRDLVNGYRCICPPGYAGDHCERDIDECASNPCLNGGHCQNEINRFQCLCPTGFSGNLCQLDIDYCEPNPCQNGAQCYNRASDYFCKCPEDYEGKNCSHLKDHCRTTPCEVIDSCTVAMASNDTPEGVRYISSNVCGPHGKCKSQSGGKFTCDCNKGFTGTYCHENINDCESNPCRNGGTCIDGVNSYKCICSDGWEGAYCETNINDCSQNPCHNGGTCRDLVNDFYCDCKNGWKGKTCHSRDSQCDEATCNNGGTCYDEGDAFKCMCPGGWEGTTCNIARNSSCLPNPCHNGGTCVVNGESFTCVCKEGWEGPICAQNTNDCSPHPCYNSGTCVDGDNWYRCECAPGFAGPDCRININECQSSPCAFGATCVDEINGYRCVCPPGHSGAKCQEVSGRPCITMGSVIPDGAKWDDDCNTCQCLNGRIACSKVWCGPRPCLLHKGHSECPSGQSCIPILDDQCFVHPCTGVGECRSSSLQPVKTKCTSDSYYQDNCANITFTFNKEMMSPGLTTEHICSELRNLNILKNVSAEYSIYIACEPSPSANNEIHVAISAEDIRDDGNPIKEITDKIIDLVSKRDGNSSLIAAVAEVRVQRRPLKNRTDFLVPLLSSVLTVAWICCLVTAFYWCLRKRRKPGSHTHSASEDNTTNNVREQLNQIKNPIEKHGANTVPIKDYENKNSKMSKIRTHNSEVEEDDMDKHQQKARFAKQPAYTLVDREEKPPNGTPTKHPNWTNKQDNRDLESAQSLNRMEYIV

B1: J1-183D variant 2: humanised/de-immunised J1-183D: J1-183D_VL_1 + J1-183D_VH_2 (antibody, V domains shown)
VH: QVQLVQSGAELKKPGASVKVSCKVSGYAFTDYAIHWIRQAPGQGLEWMGIINTYYGDSKYAQKFQGRVTMTVDTSTSTAYMELSSLRSEDTAVYYCARGYDGFAYWGQGTLVTVSSASTKGP
VL: DIQMTQSPSSLSASVGDRVTITCRTSENIYSYLTWYQQKPGKAPKLLVYNAKILAAGVPSRFSGSGSGTDFTLTISSLQPEDFATYYCQHHYDIPWTFGGGTKLEIKRT
In the case of B1, the “% soluble aggregate” value [1] is reported as 3.58%, the “Blocking of Notch1 binding to cell surface Jagged 1” value (“Blocking of Notch1 binding” below) [2, 3] is reported as “X” and the “Blocking of Notch1 binding” value [2, 4] is reported as “+ (Complete blocking)”. The “Blocking of Notch1 binding” value [2, 5] was “+ (Complete blocking)” and the “Blocking of Notch1 binding” value [2, 6] was “+ (Complete blocking)”.

B2: J1-183D variant 5: humanised/de-immunised J1-183D: J1-183D_VL_2 + J1-183D_VH_1 (antibody, V domains shown)
VH: QVQLVQSGAELKKPGASVKVSCKVSGYAFTDYAIHWIRQAPGQGLEWMGIINTYYGDSKYNQKFKDRVTMTVDKSTSTAYMELSSLRSEDTAVYYCARGYDGFAYWGQGTLVTVSSASTKGP
VL: DIQMTQSPSSLSASVGDRVTITCRTSENIYSYLTWYQQKPGKAPKLLIYNAKTLASGVPSRFSGSGSGTDFTLTISSLQPEDFATYYCQHHYDIPWTFGGGTKLEIKRT
In the case of B2, the “% soluble aggregate” value [1] is reported as 4.38%, the “Blocking of Notch1 binding” value [2, 3] is reported as “X” and the “Blocking of Notch1 binding” value [2, 4] is reported as “+ (Complete blocking)”. The “Blocking of Notch1 binding” value [2, 5] was “+ (Complete blocking)” and the “Blocking of Notch1 binding” value [2, 6] was “+ (Complete blocking)”.

B3: J1-183D variant 11: humanised/de-immunised J1-183D: J1-183D_VL_3 + J1-183D_VH_3 (antibody, V domains shown)
VH: QVQLVQSGAELKKPGASVKVSCKVSGYAFTDYAIHWVRQAPGQGLEWMGIINTYYGDSKYAQKFQGRVTMTVDTSTSTAYMELSSLRSEDTAVYYCARGYDGFAYWGQGTLVTVSSASTKGP
VL: DIQMTQSPSSLSASVGDRVTITCRTSENIYSYLTWYQQKPGKAPKLLIYNAKILDSGVPSRFSGSGSGTDFTLTISSLQPEDFATYYCQHHYDIPWTFGGGTKLEIKRT
In the case of B3, the “% soluble aggregate” value [1] is reported as 2.5%, the “Blocking of Notch1 binding” value [2, 3] is reported as “X” and the “Blocking of Notch1 binding” value [2, 4] is reported as “+ (Complete blocking)”. The “Blocking of Notch1 binding” value [2, 5] was “+ (Complete blocking)” and the “Blocking of Notch1 binding” value [2, 6] was “+ (Complete blocking)”.

B4: J1-183D variant 6: humanised/de-immunised J1-183D: J1-183D_VL_2 + J1-183D_VH_2 (antibody, V domains shown)
VH: QVQLVQSGAELKKPGASVKVSCKVSGYAFTDYAIHWIRQAPGQGLEWMGIINTYYGDSKYAQKFQGRVTMTVDTSTSTAYMELSSLRSEDTAVYYCARGYDGFAYWGQGTLVTVSSASTKGP
VL: DIQMTQSPSSLSASVGDRVTITCRTSENIYSYLTWYQQKPGKAPKLLIYNAKTLASGVPSRFSGSGSGTDFTLTISSLQPEDFATYYCQHHYDIPWTFGGGTKLEIKRT
With B4 the “% soluble aggregate” value [1] was 4.6%, the “Blocking of Notch1 binding” value [2, 3] was “X” and the “Blocking of Notch1 binding” value [2, 4] was “+ (Complete blocking)”. The “Blocking of Notch1 binding” value [2, 5] was “+ (Complete blocking)” and the “Blocking of Notch1 binding” value [2, 6] was “+ (Complete blocking)”.

B5: J1-183D variant 3: humanised/de-immunised J1-183D: J1-183D_VL_1 + J1-183D_VH_3 (antibody, V domains shown)
VH: QVQLVQSGAELKKPGASVKVSCKVSGYAFTDYAIHWVRQAPGQGLEWMGIINTYYGDSKYAQKFQGRVTMTVDTSTSTAYMELSSLRSEDTAVYYCARGYDGFAYWGQGTLVTVSSASTKGP
VL: DIQMTQSPSSLSASVGDRVTITCRTSENIYSYLTWYQQKPGKAPKLLVYNAKILAAGVPSRFSGSGSGTDFTLTISSLQPEDFATYYCQHHYDIPWTFGGGTKLEIKRT
For B5, the “% soluble aggregate” value [1] was 2.87%, the “Blocking of Notch1 binding” value [2, 3] was “X” and the “Blocking of Notch1 binding” value [2, 4] was “+ (Complete blocking)”. The “Blocking of Notch1 binding” value [2, 5] was “+ (Complete blocking)” and the “Blocking of Notch1 binding” value [2, 6] was “+ (Complete blocking)”.

B6: J1-183D variant 4: humanised/de-immunised J1-183D: J1-183D_VL_1 + J1-183D_VH_4 (antibody, V domains shown)
VH: QVQLVQSGAEVKKPGASVKVSCKASGYTFTDYAIHWVRQAPGQGLEWMGIINTYYGDSKYAQKFQGRVTMTVDTSTSTAYMELSSLRSEDTAVYYCARGYDGFAYWGQGTLVTVSSASTKGP
VL: DIQMTQSPSSLSASVGDRVTITCRTSENIYSYLTWYQQKPGKAPKLLVYNAKILAAGVPSRFSGSGSGTDFTLTISSLQPEDFATYYCQHHYDIPWTFGGGTKLEIKRT
For B6, the “% soluble aggregate” value [1] was 0.85%, the “Blocking of Notch1 binding” value [2, 3] was “X” and the “Blocking of Notch1 binding” value [2, 4] was “+ (Complete blocking)”. The “Blocking of Notch1 binding” value [2, 5] was “+ (Complete blocking)” and the “Blocking of Notch1 binding” value [2, 6] was “+ (Complete blocking)”.

B7: J1-183D variant 7: humanised/de-immunised J1-183D: J1-183D_VL_2 + J1-183D_VH_3 (antibody, V domains shown)
VH: QVQLVQSGAELKKPGASVKVSCKVSGYAFTDYAIHWVRQAPGQGLEWMGIINTYYGDSKYAQKFQGRVTMTVDTSTSTAYMELSSLRSEDTAVYYCARGYDGFAYWGQGTLVTVSSASTKGP
VL: DIQMTQSPSSLSASVGDRVTITCRTSENIYSYLTWYQQKPGKAPKLLIYNAKTLASGVPSRFSGSGSGTDFTLTISSLQPEDFATYYCQHHYDIPWTFGGGTKLEIKRT
With B7 the “% soluble aggregate” value [1] was 3.92%, the “Blocking of Notch1 binding” value [2, 3] was “X” and the “Blocking of Notch1 binding” value [2, 4] was “+ (Complete blocking)”. The “Blocking of Notch1 binding” value [2, 5] was “+ (Complete blocking)” and the “Blocking of Notch1 binding” value [2, 6] was “+ (Complete blocking)”.

B8: J1-183D variant 10: humanised/de-immunised J1-183D: J1-183D_VL_3 + J1-183D_VH_2 (antibody, V domains shown)
VH: QVQLVQSGAELKKPGASVKVSCKVSGYAFTDYAIHWIRQAPGQGLEWMGIINTYYGDSKYAQKFQGRVTMTVDTSTSTAYMELSSLRSEDTAVYYCARGYDGFAYWGQGTLVTVSSASTKGP
VL: DIQMTQSPSSLSASVGDRVTITCRTSENIYSYLTWYQQKPGKAPKLLIYNAKILDSGVPSRFSGSGSGTDFTLTISSLQPEDFATYYCQHHYDIPWTFGGGTKLEIKRT
For B8, the “% soluble aggregate” value [1] was 2.89%, the “Blocking of Notch1 binding” value [2, 3] was “X” and the “Blocking of Notch1 binding” value [2, 4] was “+ (Complete blocking)”. For the same molecule, the “Blocking of Notch1 binding” value [2, 5] was “+ (Complete blocking)” and the “Blocking of Notch1 binding” value [2, 6] was “+ (Complete blocking)”.

B9: J1-183D chimeric: chimeric antibody with unaltered CDRs: J1-183D_VL + J1-183D_VH (antibody, V domains shown)
VH: QVQLQQPGTELVRPGVSVKISCKVSGYAFTDYAIHWIMQSHAKSLEWIGIINTYYGDSKYNQKFKDKATMTVDKSSNTAYMELARLTSEDSAIYYCARGYDGFAYWGQGTLVTVSS
VL: DIQLTQSPASLSASVGETVTFTCRTSENIYSYLTWYQQKQGKSPQLLVYNAKILAAGVPSRFSGYGSGTQFSLKINSLQPEDFGTYYCQHHYDIPWTFGGGTKLEIK
In the case of B9, the “% soluble aggregate” value [1] is reported as 1.41%, the “Blocking of Notch1 binding” value [2, 3] is reported as “X” and the “Blocking of Notch1 binding” value [2, 4] is reported as “+ (Complete blocking)”. For the same molecule, the “Blocking of Notch1 binding” value [2, 5] was “+ (Complete blocking)” and the “Blocking of Notch1 binding” value [2, 6] was “+ (Complete blocking)”.

B10: J1-65D variant 16: humanised/de-immunised J1-65D: J1-65D_VL_4 + J1-65D_VH_4 (antibody, V domains shown)
VH: QVQLVQSGAEVKKPGSSVKVSCKASGYTFTDYEMHWVRQAPGQGLEWMGAIQPGGGGTAYAQKFQGRVTITADKSTSTAYMELSSLRSEDTAVYYCTRRGYDDYPFAYWGQGTLVTVSS
VL: DIQMTQSPSSLSASVGDRVTITCRASQGIHNYLAWYQQKPGKAPKLLIYNAKTLADAVPSRFSGSGSGTDYTLTISSLQPEDFATYYCQQFWSAPWTFGQGTKLEIK
For B10, the “% soluble aggregate” value [1] was 5.60%, the “Blocking of Notch1 binding” value [2, 6] was “X” and the “Blocking of Notch1 binding” value ([2]; final antibody concentration 2.0 μg/ml) was “Partial”.
